Consider 21 sequences from the DeepSol protein solubility set.

This data set is described as follows: soluble on expression in E. coli; label from the status in PepcDB or PDB records.
For the sequence “MGSDKIHHHHHHMLCAISGKVPRRPVLSPKSRTIFEKSLLEQYVKDTGNDPITNEPLSIEEIVEIVPSAQQASLTESTNSATLKANYSIPNLLTSLQNEWDAIMLENFKLRSTLDSLTKKLSTVMYERDAAKLVAAQLLMEKNEDSKDLPKSSQQAVAITREEFLQGLLQSSRDFVARGKLKAPKWPILKNLELLQAQNYSRNIKTFPYKELNKSMYYDKWVCMCRCEDGALHFTQLKDSKTITTITTPNPRTGGEHPAIISRGPCNRLLLLYPGNQITILDSKTNKVLREIEVDSANEIIYMYGHNEVNTEYFIWADNRGTIGFQSYEDDSQYIVHSAKSDVEYSSGVLHKDSLLLALYSPDGILDVYNLSSPDQASSRFPVDEEAKIKEVKFADNGYWMVVECDQTVVCFDLRKDVGTLAYPTYTIPEFKTGTVTYDIDDSGKNMIAYSNESNSLTIYKFDKKTKNWTKDEESALCLQSDTADFTDMDVVCGDGGIAAILKTNDSFNIVALTP”, the “soluble on expression in E. coli” value is on record as “not soluble”. On to “VDSVFIVGHRKLDMDALGASVGMQFFASNIVNASYVVYDPNDMNSDIERAIDYLQEDGETRLVSVERAFELITQNSLLVMVDHSKTALTLSKEFFNKFADVIVVDHHRRDEDFPKNAVLSFIESGASSASELVTELIQFQQAKDKLSRSQASILMAGIMLDTRNFASNVTSRTFDVASYLRGLGSNSMAIQKISATDF”, for which the “soluble on expression in E. coli” value is given as “not soluble”. For “MAHHHHHHMGFPAVPFVEDKNDAEILRDEADDEFASYFKEGRKPKILITTGEHPCFRTKLFVKEALWLFPNSIYRPRKKYNLKEITQFCINREFTDLIVVTDRLKEPYNLIISHLPEGPTAMFRVSNFMTHAQLKDPAPRTEHYPELIFKNFDTRLGRRINRLLECLFPATRDYEGRAVATFHNQRDYIFMRTHRYIFDSLDAVRIQEMGPRFTLRLLSLQSGTFDTQFGEYEWFRKKEHDDDKLEWYL”, the “soluble on expression in E. coli” value was “soluble”.

For the sequence “MSLDLKFTDFLDPRVKSSLGEEEIVFPPYDANQLRDILQHRSDVAFKADALSDDVLPLCAAFAAQEHGDARRALDLLRTAGELAERDQAENVTEDHVRRAQDKIELDRVVEVVRTLPTQSKLVLYAILLLEDNGVHNVNTGEVYNIYKTLCDELDADVEGHHHHHH”, the “soluble on expression in E. coli” value is “soluble”.

Regarding “MFYGGIDVAKYRHEICIVDESGNVILQIFVDNTRNGLDKLIHNLKRLEIEVSNVEFCLEATGHYWLSLYYHLTELGYKIHVINPIQSDALRNFYVRKTKTDRKDAHLLADIVRFGHISETKLASETVLKLQNLSRLRFEFVRQVGGLKNRVLGILDRIFPEYPQCFSNVFINTSRELLKSFTAPEDLAEADLSELTDFLNKHSRGRLGVDRAKQIQALAKGTFGINIALDAFTLELRLLVEQIEFIEEQISVIEEAIDQVMEEMRPSKDTAYRHVLETIPGIGPVLAASIIGEIGDINRFPNAKALVAYAGLDATVRSSGQFEGTRNRISKRGSPVLRHSIWLAAVSARRFNPEMKEFFEKKRSEGKHTLVATGAVARRMVHLIYSLWKDNRPFDPNYQWSPTNSR”, the “soluble on expression in E. coli” value was “not soluble”. Consider “METPLVSIVSICWNRKDEICESLNNIRKIDYESLEIIVVDNGSTDGTVEKIEEDFKEVKLIKMPKNAGIEAYNVGFKSAAGEYIVILDDDSFPEKNSIKRMVKKFQKDDKLGMVAFDVRNYYNYDEVKKIDTEETSNDTAAESDEYIMAFNGAGAGVRTEVLKKAGFYPEEFFLYWNEQDTAFRILDMGYKIKFFADVIAYHKYSPKNRASWRAPFYYTRNAFFLVWKNYSTKAALKKTIELIYDCFYYSMEQKTNIYLKAMWNAFMNFNKIKGKRKVVDKYIEENLRIPLNVSFTFYKLEHHHHHH”, for which the “soluble on expression in E. coli” value was “not soluble”. As to “MSLSAIPPDAIDDESRDTLTGLAGIASASDWLDRNGAKGFVHAMLLGLHRFRSVNLAYGQSAGDIALVELAQRIRIFADEEIGGDTLVARVGGGDFLVASAGKVSRERWQWLAEALARRVSRVLPLRGEELQLAPRIALLRGQPGEGGPALLDRLDQALTTLQQQPARRLQWADGSHLARGRSAARLEADMIGAMARDEIGIVFQPQYAVAGGDIVGVEALARWDHPQLGRIGAETLFALAERGDHVAQVSRHIAGRAMWQAVEWKPVIPLSLNITAEDLGDDRLVEDCRLLLAQTGYPPSSLTVEVTEHALIADFERSAAALEQLARLGVRIALDDFGAGYANFRTLKALPVNTLKLDASLVRDIDRDPRDRAILRAIVAMARALGQKVVVEGIERESQLQVLAAEGCDAFQGFLRSGPIPADQIAALSREGHHHHHH”, the “soluble on expression in E. coli” value is recorded as “soluble”.

As to “MKLPARVFFTLGSRLPCGLAPRRFFSYGTKILYQNTEALQSKFFSPLQKAMLPPNSFQGKVAFITGGGTGLGKGMTTLLSSLGAQCVIASRKMDVLKATAEQISSQTGNKVHAIQCDVRDPDMVQNTVSELIKVAGHPNIVINNAAGNFISPTERLSPNAWKTITDIVLNGTAFVTLEIGKQLIKAQKGAAFLSITTIYAETGSGFVVPSASAKAGVEAMSKSLAAEWGKYGMRFNVIQPGPIKTKGAFSRLDPTGTFEKEMIGRIPCGRLGTVEELANLAAFLCSDYASWINGAVIKFDGGEEVLISGEFNDLRKVTKEQWDTIEELIRKTKGS”, the “soluble on expression in E. coli” value is given as “soluble”. With “MYRVFECFDELIDILEKSTGVPMTSNCMVPRHHMLALIDEARNALPNEIDDAQDVIDQQDEILRGAQERARTTIDEANEEARRTVTQSREEADALVADAEEHAERVVRQAQDEADRLVDGARREADDTVNRAQAEAERLIASGNDQYQRSVDDGLAEQQRLVSEAEVVRRANEEAHRVVDAAHADSNRLRKECDTFVENKLADLEESLSSTLRTISRDRAALRRGAGASGGGNHSQS”, the “soluble on expression in E. coli” value is “not soluble”. As for “MATSAEVSQRVLAYLVEQLGVDVSFLRHNDRDRRATRLVAEWPPRLNIPDPDPLRLIYFADADPVFALCEHAKEPLVFRPEPATEDYQRLIEEARGVPVTSAAAVPLVSGEITTGLLGFIKFGDRKWHEAELNALMTIATLFAQVQARVAAEARLRYLADHDDLEHHHHHH”, the “soluble on expression in E. coli” value is listed as “not soluble”. As to “MVVIMLNYDDIKIIDEIYSEGYLFAQYGIYIKKKFKQKIFKIPVDIGLGCPHKKNGGCIFCPEMGRPISVKYCSAKIPLKEQIKKQMENQKKKGFKKFYIYFYPGTNTYAPAEKLKEIWDFSLSYKEVIGLSIGTRPDCLEKEKLDILAEYVENGYDIWIDLGVQSMHQKTLEILNRGHDVSDIIKAIKDCHKRGIKVCGHVILGLPGESWKEMMETAKILSLLEIEAVKIYPLVVVKGTKLEEMYW”, the “soluble on expression in E. coli” value is “not soluble”. With “MGHHHHHHSHMEAEESEKAATEQEPLEGTEQTLDAEEEQEESEEAACGSKKRVVPGIVYLGHIPPRFRPLHVRNLLSAYGEVGRVFFQAEDRFVRRKKKAAAAAGGKKRSYTKDYTEGWVEFRDKRIAKRVAASLHNTPMGARRRSPFRYDLWNLKYLHRFTWSHLSEHLAFERQVRRQRLRAEVAQAKRETDFYLQSVERGQRFLAADGDPARPDGSWTFAQRPTEQELRARKAARPGGRERARLATAQDKARSNKGLLARIFGAPPPSESMEGPSLVRDS”, the “soluble on expression in E. coli” value is reported as “not soluble”. The value for “MSLKLLPAKQEAIEFVHFANVINDYLYKYPDKRNSGGTLTSEQIGITPVYDIHHIIYGKRVYIWSADTEGLMSALQQQTKHSAMLGRVKNKKIVDNQGNDMGVPVPSSIPEEAIVLINEGHHHHHH” was “soluble”; that for “MSLKFAVLVFPGSNCDRDMYNAAIKSGVDAAYVDYRETTLDGFDGVLIPGGFSFGDYLRSGAMASVAPIIKEVKRFAKEGKPVLGVCNGFQILTEIGLLPGALLHNDSHLFISRNETLKITNNQTPFTHLYVKNENVVYPVAHGEGHYYCTDEIYRELNDNNQIILKYTNNPNGSYEDIAGIVNKEGNVCGMMPHPERALETLLGTNSGVKLFESMVKSWREQNEGHHHHHH” was “soluble”; that for “AEIFATHLEAIARHTGPVRTLIDLGAGDCAKAERLLPCLRPQRYVPIDISTDFLGQAVARVRRAHPWLDVLPLGRDLNAGLDLPEAIDAQGRLFFYPGSSIGNLDPDAALALLASLRAQAGVSGGLLIGVDRVKARAIVEPAYDDALHLTGAFNLNLLRHVNSVLGSDFDVRDWTHVALYNEPRSRMEMHLQARSDIRVRWPGGQRRFQADERIHTENSYKYTIERFVDLLRRAGYGDIRYWSDARDWFSVFSARA” was “not soluble”.

Turning to “MGSDKIHHHHHHMQSALWVSKTGLAAQDTKMTTIANNLANVNTTGFKRDRVAFNDLFYQVQRQPGGQVDELNQLPSGLQLGTGTRVAGTQKVFTTGDVHNTSQQLDLAIEGNGFFQVEEPNGDLAYTRDGQFYRSSEGMMVTSQGLPLVPNIVIPEDSTNITIATDGIVMATIAGDAEPQELGQITLINFTNPAGLEARGNNLYRETAASGVAVEGVAGDQALGGLRQGSLEGSNVNVVEEMVEMISTQRAYEMNAKVVSASDDMLKFLNQSV”, the “soluble on expression in E. coli” value was “not soluble”. For the sequence “MARGMNHVYLIGALARDPELRYTGNGMAVFEATVAGEDRVIGNDGRERNLPWYHRVSILGKPAEWQAERNLKGGDAVVVEGTLEYRQWEAPEGGKRSAVNVKALRMEQLGTQPELIQDAGGGVRMSGAMNEVLVLGNVTRDPEIRYTPAGDAVLSLSIAVNENYQDRQGQRQEKVHYIDATLWRDLAENMKELRKGDPVMIMGRLVNEGWTDKDGNKRNSTRVEATRVEALARGAGNANSGYAAATPAAPRTQTASSAARPTSGGYQSQPSRAANTGSRSGGLDIDQGLDDFPPEEDDLPF”, the “soluble on expression in E. coli” value is “soluble”. With “MKCYFRSFDAGIGDCNIIRLVKNEGEQYVIMVDCGSYTEPLKEYLQNALHNHIDLLIATHIDGDHIQGIATMLKKHEGLTVGEIWYNCYKRTKGAEYIELNDQQKAILKQIQKALPVEFDAINYREITATQGKTLAQTILCNEKFKGVWKTEYITSNTEDFDIPGGFGKIVFLAPRQEALKAIENKFKEAFDKYFMQAWNESIENVEELQELLIRLVDAYQDKFGGKQISAKNKPVYNVAFVRKQAKEEGADDSDTNCSSIAFMLECGEHRIAMLGDAFADIIEETIDNKYKDQAKPMECDAIKVSHHGSNGNSSKTLLDRINSHIYFIPGGKGEKYPAWGTFGRIAEKHKDDQAKLIVFSRQCTITEKMNGLNEEVKRELGVETIITEQEYELFEW”, the “soluble on expression in E. coli” value was “not soluble”. “MLQHKILGLDVGSRTVGIAISDIMGWTAQGLDTLRINEENNELGIDQLVDIIKKHNVGTVVIGLPKNMNNSIGFRGEASLTYKEKLLEAYPSIEIVMWDERLSTMAAERSLLEADVSRQKRKQVIDKMAAVFILQGYLDSLHLEHHHHHH”: the “soluble on expression in E. coli” value is “soluble”. As to “SDPRRNFQPGGYDSRNTFTSGSFGPPDFGESDEAELVSVSWNQDYSCFAAGTSHGFRIYNCEPFKETFRRELKDGGFKIVEMLFRSNILALVGGGPNSQYPSNKVLIWDDHQGRCISEFTFRSEIRAVKLRRDRIVVVLEHKIYVYNFMDLRLLHQIENMANPRGLCCLSHHMNTSVLACPGIRRGEVRVEHFGLNMVQIINAHDSNIACMTLTLDGLLLATASTKGTLIRIFNTMDGTRLQEVRRGVDRADIYSIALSPNVQWLAVSSDKGTVHIFSLRVRVIGEDAYSTEHETSSNSLQPLVSPASGANPGSSLSFLRGVLPKYFSSEWSFSQFHVPEVTQYFAAFGAQNTIAIIGLDGSFYRCNFDPVNGGEMTQLEHFHFLKQDSPR”, the “soluble on expression in E. coli” value is reported as “soluble”. The result for “MGSDKIHHHHHHMNYEDFKEVIHGRRSVRKFTEQEVATSDIKDIIDCARYAPSDTNSQTWEFLVIMNREKIKEIEQMTWDALHKLAAKAAKNGEEKAGKLLTRSFGPYATAFSEAPVLIVCLATPYESKFREKIFDPIAFVPDSVWEEEGIKSSCLAAQNLMLAAHAKGLGTCPMTGPVLLAQDELRQYLQIEPEKQINMVISLGFPKDKPKKLPRKEVDEITTFVF” reads “not soluble”.
